Data on three molecules can be found in patent US20200276326A1.

Assay [1] has as its target human CD5 on cells (MOLT-4 human T lymphoblast cells; primary human T-cells) (human) (UniProt P06127). Kind of assay: flow cytometry on MOLT-4 cells, anti-mouse AF488 secondary, 4 C.
For assay [2], the target named is purified human CD5 ectodomain (human) (UniProt P06127). Kind of assay: BLI (Octet Red96), antibody on anti-human Fc biosensors, 50 nM CD5 ectodomain, 25 C.
Assay [3] addresses human CD5 on cells (MOLT-4 human T lymphoblast cells; primary human T-cells) (human) (UniProt P06127). The assay can be described thus: flow cytometry on primary human T-cells, AF488 secondary, antibody titration at 37 C. (In general: Flow cytometry measures light scatter and fluorescence of single cells or particles in a stream.)

In assay [1], “murine anti-CD5 antibody CRIS-1 (Novus Biologicals)” returned an EC50 of 0.043 nM.

Turning to “murine anti-CD5 antibody UCHT2 (BioLegend)”, the EC50 in assay [1] stood at 0.354 nM.

B1: anti-CD5 antibody 5D7 hIgG1 (humanized version of murine antibody 5D7) (antibody, V domains shown)
VH: QVTLKESGPVLVKPTETLTLTCTFSGFSLSTSGMGVGWIRQAPGKGLEWVAHIWWDDDVYYNPSLKSRLTITKDASKDQVSLKLSSVTAADTAVYYCVRRRATGTGFDYWGQGTLVTVSS
VL: NIVMTQSPSSLSASVGDRVTITCQASQDVGTAVAWYQQKPDQSPKLLIYWTSTRHTGVPDRFTGSGSGTDFTLTISSLQPEDIATYFCHQYNSYNTFGSGTKLEIK
B1: in assay [2], the Kd is 0.141 nM, the Response was 0.67 nm, the koff was found to be 3.36e-05 s⁻¹ and the association rate constant (kon) is 239000 M⁻¹ s⁻¹. The molecule further registered a concentration for a half-maximal effect (EC50) in assay [3] of 0.003 nM.

What is called EC50 is the midpoint of the concentration-response curve. The low end stands for greater potency, the high end for weaker potency. Usually Kd stands for the constant that tells how readily two partners part at equilibrium. Low values mean tighter binding, high ones weaker binding. The term koff denotes a measure of how fast the partners let go of each other. As a reminder, the kon is the second-order rate constant of association.
